B1: LINE1-full (parent)
chain: UACGUAGGUGGUUUUCCCCUGAUAGUGCUAAGGGGGCCUGGAAGUUUGGACUGGGCAGAGCUCAACACAGCGUGGCAAAGUGGCUGUGGCUAGACUGCCUCUCUGGAUUCCUCGUCACUCAGCAGGGCAUCUCUGAGAGAAAUGCC

Variants of: B1
Assay: self-cleavage, relative activity (ratio to wild type); higher = more cleavage; in vitro, sequencing; the parent is a self-cleaving ribozyme

Variant | self-cleavage
G89A U91C | 0.05
G89A U102C | 0.05
G89A U104A | 0.01
G89A U109G | 0.04
G89A U112C | 0.05
G89A U132C | 0.06
G89A U143A | 0.05
G89C | 0.04
G89C A124G | 0.08
G89C A136G | 0.06
G89C A138G | 0.07
G89C G122C | 0.02
G89C U119A | 0.02
G89C U130C | 0.09
G89U | 0.01
G89U A107G | 0.04
G89U A117G | 0
G89U A124G | 0.16
G89U A142G | 0.03
G89U C123G | 0.07
G89U G93A | 0.04
G89U G125A | 0.05
G89U U134G | 0.04
C90A | 0.04

Variant | self-cleavage
C90A A107G | 0.04
C90A A107U | 0.03
C90A A117C | 0.05
C90A A141G | 0.03
C90A C99G | 0.02
C90A U96C | 0.04
C90G | 0.03
C90G A129G | 0.04
C90G A142G | 0.05
C90G U102C | 0.01
C90U | 0.03
C90U A94U | 0.04
C90U A107G | 0.03
C90U A138G | 0.04
C90U A142G | 0.03
C90U G93U | 0.04
C90U U100A | 0.04
C90U U108G | 0.09
C90U U112A | 0.04
C90U U112C | 0.03
C90U U115C | 0.06
C90U U119C | 0.03
C90U U130C | 0.04
C90U U134G | 0.04

Variant | self-cleavage
C90U U143C | 0
U91A A92G | 0.16
U91A A92U | 1.33
U91A A117U | 0.6
U91A A124U | 0.48
U91A A129U | 0.86
U91A A136G | 0.36
U91A A136U | 0.54
U91A A138G | 0.84
U91A A140G | 0.45
U91A A142G | 0.63
U91A G126A | 0.43
U91A G144A | 0.88
U91A U96A | 0.04
U91A U100C | 0.96
U91A U102C | 0.22
U91A U104A | 0.46
U91A U108C | 0.73
U91A U109C | 0.65
U91A U112C | 0.58
U91A U130C | 0.79
U91A U134A | 0.18
U91A U134C | 0.45
U91A U143A | 0.52

Variant | self-cleavage
U91C A92G | 0.1
U91C A92U | 0.23
U91C A94G | 0.15
U91C A94U | 0.2
U91C A117C | 1.24
U91C A121G | 1.29
U91C A124C | 0.69
U91C A129U | 0.82
U91C A136G | 0.8
U91C A138G | 1.98
U91C A140C | 0.38
U91C A141U | 0.51
U91C A142G | 0.73
U91C C98A | 0.06
U91C C99U | 0.12
U91C C101U | 0.69
U91C C110G | 0.58
U91C C113A | 0.82
U91C C118U | 0.67
U91C C120A | 0.74
U91C C145U | 0.43
U91C C146U | 0.53
U91C G97A | 0.05
U91C G122A | 0.29

Variant | self-cleavage
U91C G125A | 0.32
U91C G135A | 0.73
U91C G137A | 1.14
U91C G144A | 0.47
U91C U96A | 0.08
U91C U100C | 0.48
U91C U102C | 0.4
U91C U104A | 0.34
U91C U104C | 1.15
U91C U108C | 0.62
U91C U109C | 0.61
U91C U112A | 0.42
U91C U119A | 0.48
U91C U119G | 1.53
U91C U132C | 0.83
U91C U143A | 0.72
U91C U143C | 0.78
U91C U143G | 0.62
U91G A121G | 0.33
U91G A141G | 0.06
U91G C146U | 0.1
U91G G114C | 0.02
U91G U119C | 0
U91G U143C | 0.07

Variant | self-cleavage
A92C | 0.13
A92C A121U | 0.05
A92C A138G | 0.14
A92C A142G | 0.33
A92C C113U | 0.14
A92C U102C | 0.14
A92C U104A | 0.38
A92C U112C | 0.18
A92C U130A | 0.28
A92G | 0.1
A92G A94U | 0.05
A92G A107U | 0.09
A92G A124G | 0.04
A92G A129U | 0.17
A92G A138U | 0.11
A92G A140G | 0.15
A92G A141G | 0.12
A92G C103U | 0.03
A92G C110U | 0.05
A92G C113U | 0.1
A92G C118U | 0.07
A92G C128A | 0.04
A92G C128U | 0.03
A92G C133U | 0.02

Variant | self-cleavage
A92G C146U | 0.07
A92G G97C | 0.06
A92G G114A | 0.1
A92G G122A | 0.13
A92G G126U | 0.13
A92G G127A | 0.12
A92G G137U | 0.07
A92G U96C | 0.25
A92G U100A | 0.13
A92G U104A | 0.06
A92G U109A | 0.08
A92G U109C | 0.09
A92G U115C | 0.08
A92G U119C | 0.1
A92G U130C | 0.11
A92G U132C | 0.05
A92G U134C | 0
A92G U143A | 0.14
A92U | 0.66
A92U A94G | 0.05
A92U A107C | 0.9
A92U A107U | 0.89
A92U A117G | 1.46
A92U A124U | 1.2

Variant | self-cleavage
A92U A129G | 0.69
A92U A129U | 0.6
A92U A141G | 0.96
A92U C110U | 0.46
A92U C118G | 0.37
A92U C120U | 0.78
A92U G126A | 0.41
A92U U96C | 0.11
A92U U104A | 0.44
A92U U108A | 0.6
A92U U109A | 0.34
A92U U109C | 0.65
A92U U115A | 0.62
A92U U115C | 0.72
A92U U119C | 0.87
A92U U130A | 0.67
A92U U132A | 0.69
A92U U132C | 0.83
A92U U134A | 0.52
A92U U134C | 0.71
G93A | 0.04
G93A A117G | 0.06
G93A A129G | 0.08
G93A A140G | 0.06

Variant | self-cleavage
G93A A141G | 0.04
G93A A142G | 0.04
G93A C95G | 0.04
G93A G122C | 0.01
G93A U102C | 0.06
G93A U108C | 0.03
G93A U109A | 0.03
G93A U109G | 0.06
G93A U112C | 0.06
G93A U130C | 0.02
G93A U132C | 0.03
G93C | 0.05
G93C C120U | 0.03
G93U | 0.06
G93U A107G | 0.06
G93U A121C | 0.03
G93U A136G | 0.08
G93U A140G | 0.05
G93U G122A | 0.06
G93U G127C | 0.19
G93U U102C | 0.04
G93U U109C | 0.02
G93U U112C | 0.03
G93U U115C | 0.04

Variant | self-cleavage
A94C A107G | 0.13
A94C A117C | 0.07
A94C A117G | 0.22
A94C C95U | 0.02
A94C G126C | 0.23
A94C U96C | 0.18
A94C U109A | 0.05
A94C U109C | 0
A94G A107G | 0.51
A94G A117U | 0.4
A94G A121C | 0.57
A94G A121G | 0.22
A94G A124U | 0.36
A94G A129U | 0.22
A94G A138G | 0.19
A94G A140G | 0.26
A94G A141U | 0.19
A94G A142G | 0.41
A94G C110G | 0.22
A94G C110U | 0.32
A94G C113U | 0.09
A94G C131U | 0.17
A94G C133A | 0.46
A94G G97A | 0.02

Variant | self-cleavage
A94G G105A | 0.18
A94G G105U | 0.2
A94G G126A | 0.21
A94G U96A | 0.11
A94G U96C | 0.11
A94G U102C | 0.18
A94G U108C | 0.61
A94G U119A | 0.39
A94G U119C | 0.38
A94G U132G | 0.28
A94G U143A | 0.55
A94U A117G | 0.38
A94U A117U | 0.41
A94U A121G | 0.52
A94U A124G | 0.33
A94U A124U | 0.35
A94U A129G | 0.3
A94U A136G | 0.3
A94U A140G | 0.23
A94U A142C | 0.09
A94U A142G | 0.34
A94U C113U | 0.12
A94U C133U | 0.29
A94U G105A | 0.21

Variant | self-cleavage
A94U U96A | 0.08
A94U U102C | 0.16
A94U U108C | 0.46
A94U U109A | 0.27
A94U U112G | 0.42
C95A | 0.07
C95A G114A | 0.07
C95A U100C | 0.09
C95A U112C | 0.05
C95A U130C | 0
C95A U143C | 0.08
C95G | 0.06
C95U | 0.14
C95U A117U | 0.21
C95U A124U | 0.2
C95U A141G | 0.07
C95U U96C | 0.07
C95U U104C | 0.54
C95U U119C | 0.22
C95U U134C | 0.11
U96A | 0.07
U96A A107G | 0.08
U96A A107U | 0.08
U96A A117G | 0.11

Variant | self-cleavage
U96A A121C | 0.06
U96A A121G | 0.1
U96A A124U | 0.06
U96A A129G | 0.07
U96A A129U | 0.07
U96A A138G | 0.07
U96A A141G | 0.08
U96A A142G | 0.08
U96A C99U | 0.03
U96A C103A | 0.06
U96A C110G | 0.09
U96A C111U | 0.07
U96A C116U | 0.11
U96A C123U | 0.06
U96A C145A | 0.06
U96A G105A | 0.04
U96A G114A | 0.06
U96A G122A | 0.06
U96A G125U | 0.09
U96A G127U | 0.05
U96A G144A | 0.07
U96A U100A | 0.07
U96A U102A | 0.1
U96A U102C | 0.12

Variant | self-cleavage
U96A U104G | 0.08
U96A U108A | 0.13
U96A U109C | 0.1
U96A U112C | 0.06
U96A U132A | 0.08
U96A U134C | 0.08
U96A U143A | 0.38
U96A U143C | 0.06
U96A U143G | 0.1
U96C | 0.13
U96C A107U | 0.17
U96C A121C | 0.09
U96C A121G | 0.12
U96C A124G | 0.06
U96C A129C | 0.15
U96C A138G | 0.2
U96C A140G | 0.09
U96C C99U | 0.1
U96C C101U | 0.06
U96C C120U | 0.2
U96C C123U | 0.04
U96C C128U | 0.12
